Test results published in PMC3621912 (Virology, 2012).

What was measured:
[1] = target: the molecule itself; assay: non-reducing SDS-PAGE with gel densitometry
[2] = target: the molecule itself; assay: non-reducing SDS-PAGE with immunoblot
non-reducing SDS-PAGE = target: the molecule itself; assay: non-reducing SDS-PAGE

B1: protein VI with the G48C mutation, in AdV VI-G48C particles (natural protein)
chain: AFSWGSLWSGIKNFCSTVKNYGSKAWNSSTGQMLRDKLKEQNFQQKVVDGLASGISGVVDLANQAVQNKINSKLDPRPPVEEPPPAVETVSPEGRGEKRPRPDREETLVTQIDEPPSYEEALKQGLPTTRPIAPMATGVLGQHTPVTLDLPPPADTQQKPVLPGPTAVVVTRPSRASLRRAASGPRSLRPVASGNWQSTLNSIVGL
modifications: intermolecular disulfide bond between protein VI molecules (in the dimer fraction)
- ratio of monomer:dimer [1]: ~1.4 dimer per monomer
- stoichiometry N [2]: 2

B2: recombinant VI114-G48C (protein VI residues 34-114 with G48C) (domain or fragment)
chain: AFSWGSLWSGIKNFCSTVKNYGSKAWNSSTGQMLRDKLKEQNFQQKVVDGLASGISGVVDLANQAVQNKINSKLDPRPPVE
modifications: intermolecular disulfide bond (in the dimer fraction)
- stoichiometry N (non-reducing SDS-PAGE): 2
